In PMC5048595:

T1: hPolη (human DNA polymerase eta) (Homo sapiens, UniProt Q9Y253 1-713)
T1 sequence: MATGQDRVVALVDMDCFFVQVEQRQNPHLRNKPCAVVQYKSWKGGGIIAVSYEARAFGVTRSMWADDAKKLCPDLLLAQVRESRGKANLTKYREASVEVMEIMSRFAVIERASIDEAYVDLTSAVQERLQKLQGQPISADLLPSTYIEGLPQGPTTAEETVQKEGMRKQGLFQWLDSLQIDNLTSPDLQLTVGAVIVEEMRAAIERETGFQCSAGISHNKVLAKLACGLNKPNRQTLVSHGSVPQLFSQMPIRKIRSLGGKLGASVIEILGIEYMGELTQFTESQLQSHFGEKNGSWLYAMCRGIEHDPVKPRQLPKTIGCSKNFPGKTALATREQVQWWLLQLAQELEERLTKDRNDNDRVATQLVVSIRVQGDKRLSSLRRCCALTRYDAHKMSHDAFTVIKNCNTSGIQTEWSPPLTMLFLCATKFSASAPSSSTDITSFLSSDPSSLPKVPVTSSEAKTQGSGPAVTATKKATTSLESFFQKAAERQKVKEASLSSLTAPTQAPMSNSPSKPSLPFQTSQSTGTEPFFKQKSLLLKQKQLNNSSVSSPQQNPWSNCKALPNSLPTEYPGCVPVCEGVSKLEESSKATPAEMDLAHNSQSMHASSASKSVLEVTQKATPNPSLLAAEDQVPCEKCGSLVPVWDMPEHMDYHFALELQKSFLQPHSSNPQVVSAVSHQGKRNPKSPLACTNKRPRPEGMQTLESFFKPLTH

B1: 18/26-mer-dGC8-N-ABA (dsDNA)
DNA 1: AACGACGGCCAGTGAATT
DNA 2: CCCGCGCGAATTCACTGGCCGTCGTT
modifications: template dG at position 21 from 3' end (6 from 5' end) is N-(2'-deoxyguanosin-8-yl)-3-aminobenzanthrone
B2: 19/26-mer (dsDNA)
DNA 1: AACGACGGCCAGTGAATTC
DNA 2: CCCGCGCGAATTCACTGGCCGTCGTT
B3: 20/26-mer (dsDNA)
DNA 1: AACGACGGCCAGTGAATTCG
DNA 2: CCCGCGCGAATTCACTGGCCGTCGTT
B4: 22/26-mer (dsDNA)
DNA 1: AACGACGGCCAGTGAATTCGCG
DNA 2: CCCGCGCGAATTCACTGGCCGTCGTT
B5: 19/26-mer-dGC8-N-ABA (dsDNA)
DNA 1: AACGACGGCCAGTGAATTC
DNA 2: CCCGCGCGAATTCACTGGCCGTCGTT
modifications: template dG at position 21 from 3' end (6 from 5' end) is N-(2'-deoxyguanosin-8-yl)-3-aminobenzanthrone
B6: 22/26-mer-dGC8-N-ABA (dsDNA)
DNA 1: AACGACGGCCAGTGAATTCGCG
DNA 2: CCCGCGCGAATTCACTGGCCGTCGTT
modifications: template dG at position 21 from 3' end (6 from 5' end) is N-(2'-deoxyguanosin-8-yl)-3-aminobenzanthrone
B7: 20/26-mer-dGC8-N-ABA (dsDNA)
DNA 1: AACGACGGCCAGTGAATTCG
DNA 2: CCCGCGCGAATTCACTGGCCGTCGTT
modifications: template dG at position 21 from 3' end (6 from 5' end) is N-(2'-deoxyguanosin-8-yl)-3-aminobenzanthrone
B8: 21/26-mer (dsDNA)
DNA 1: AACGACGGCCAGTGAATTCGC
DNA 2: CCCGCGCGAATTCACTGGCCGTCGTT
B9: 18/26-mer (dsDNA)
DNA 1: AACGACGGCCAGTGAATT
DNA 2: CCCGCGCGAATTCACTGGCCGTCGTT
B10: 21/26-mer-dGC8-N-ABA (dsDNA)
DNA 1: AACGACGGCCAGTGAATTCGC
DNA 2: CCCGCGCGAATTCACTGGCCGTCGTT
modifications: template dG at position 21 from 3' end (6 from 5' end) is N-(2'-deoxyguanosin-8-yl)-3-aminobenzanthrone

Each binder was assayed against T1, hPolη (human DNA polymerase eta) (assay: EMSA).
For B1, the Kd was 32 ± 5 nM.
In the case of B2, the Kd is reported as 25 ± 5 nM.
In the case of B3, the Kd is reported as 23 ± 2 nM.
With B4 the Kd was 17 ± 6 nM.
In the case of B5, the Kd is reported as 12 ± 2 nM.
B6 was tested, and the Kd was 24 ± 4 nM.
B7 was tested, and the Kd was 12 ± 2 nM.
Work on B8 yielded a Kd of 26 ± 1 nM.
With B9 the Kd was 28 ± 3 nM.
With B10 the Kd was 26 ± 7 nM.
